The experiment concerns the target recombinant human PD-1 (human) (UniProt Q15116). Nature of the experiment: ELISA. In general terms: In an ELISA, binding on a coated surface is turned into a signal by an enzyme label.
Sequence of UniProt Q15116 (Q15116 25-170): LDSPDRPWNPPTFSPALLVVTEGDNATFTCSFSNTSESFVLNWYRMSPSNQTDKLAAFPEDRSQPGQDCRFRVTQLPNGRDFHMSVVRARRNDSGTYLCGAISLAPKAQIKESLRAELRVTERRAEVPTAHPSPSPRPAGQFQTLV

As for “Recombinant cynomolgus monkey PD-L1.mFc (Fc fusion)”, the concentration giving a half-maximal response (EC50) (usually the concentration giving half of the maximal effect) came out at 2.88 nM.

The values above are taken from paper PMC7831708.
